The values below come from US20240270821A1, “GIP/GLP1/GCG TRI-RECEPTOR AGONISTS AND USES THEREOF” (priority 2023, published 2024).

Assay in all cases: cell-based or functional assay
Test [1] addresses hGLP-1R (Homo sapiens, UniProt P43220).
Test [2] deals with T1, human GIP receptor (human) (UniProt P48546).
T1 sequence (looked up): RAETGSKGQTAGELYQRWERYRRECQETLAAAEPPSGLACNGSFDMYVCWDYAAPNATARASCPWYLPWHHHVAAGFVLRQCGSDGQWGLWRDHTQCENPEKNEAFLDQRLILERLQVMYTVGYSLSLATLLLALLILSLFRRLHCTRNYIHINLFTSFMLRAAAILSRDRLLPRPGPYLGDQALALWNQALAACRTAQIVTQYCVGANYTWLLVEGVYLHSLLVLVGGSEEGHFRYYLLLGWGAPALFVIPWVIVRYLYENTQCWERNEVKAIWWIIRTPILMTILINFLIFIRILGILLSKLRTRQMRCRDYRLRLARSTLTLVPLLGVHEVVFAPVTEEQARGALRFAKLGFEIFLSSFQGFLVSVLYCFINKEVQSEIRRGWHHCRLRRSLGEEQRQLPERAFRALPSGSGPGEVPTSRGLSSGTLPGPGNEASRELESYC

Test [3] addresses human GLP-1R (SNAP-GLP-1R expressed in HEK293 cells) (human) (UniProt P43220).
Test [4] concerns the target human glucagon receptor (human) (UniProt P47871).

Starred links: 1 amine or outer side, 2 acyl side, 3 side chain; linkers in the order of their positions; H or OH if unused. Non-standard residues stand in square brackets, D forms with d. Groups on a side chain read outwards from the residue. No end group written: not given here. *: point of attachment. C18 diacid = O=C(O)CCCCCCCCCCCCCCCCC(=O)*; γGlu = O=C(O)[C@H](CCC(=O)[*:2])N[*:1]; 4Pal = N[C@@H](Cc1ccncc1)C(=O)O; αMeL = CC(C)C[C@](C)(N)C(=O)O; Dab = NCC[C@H](N)C(=O)O; AEEA = NCCOCCOCC(=O)O; Aib = CC(C)(N)C(=O)O

Chain of hGLP-1R (P43220 24-463): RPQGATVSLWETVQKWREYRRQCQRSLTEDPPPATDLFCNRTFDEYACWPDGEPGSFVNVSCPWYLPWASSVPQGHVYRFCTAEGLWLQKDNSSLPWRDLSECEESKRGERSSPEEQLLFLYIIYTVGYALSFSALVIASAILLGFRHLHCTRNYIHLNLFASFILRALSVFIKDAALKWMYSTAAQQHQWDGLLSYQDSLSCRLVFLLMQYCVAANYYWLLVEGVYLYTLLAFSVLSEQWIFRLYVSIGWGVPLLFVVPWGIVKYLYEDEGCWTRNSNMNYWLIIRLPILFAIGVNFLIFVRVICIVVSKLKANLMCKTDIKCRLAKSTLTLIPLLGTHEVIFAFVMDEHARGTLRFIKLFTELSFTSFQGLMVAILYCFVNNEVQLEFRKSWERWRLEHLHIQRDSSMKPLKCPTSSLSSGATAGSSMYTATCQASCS
Chain of human GLP-1R (SNAP-GLP-1R expressed in HEK293 cells) (human) (P43220 24-463): as above
Chain of human glucagon receptor (human) (P47871 26-477): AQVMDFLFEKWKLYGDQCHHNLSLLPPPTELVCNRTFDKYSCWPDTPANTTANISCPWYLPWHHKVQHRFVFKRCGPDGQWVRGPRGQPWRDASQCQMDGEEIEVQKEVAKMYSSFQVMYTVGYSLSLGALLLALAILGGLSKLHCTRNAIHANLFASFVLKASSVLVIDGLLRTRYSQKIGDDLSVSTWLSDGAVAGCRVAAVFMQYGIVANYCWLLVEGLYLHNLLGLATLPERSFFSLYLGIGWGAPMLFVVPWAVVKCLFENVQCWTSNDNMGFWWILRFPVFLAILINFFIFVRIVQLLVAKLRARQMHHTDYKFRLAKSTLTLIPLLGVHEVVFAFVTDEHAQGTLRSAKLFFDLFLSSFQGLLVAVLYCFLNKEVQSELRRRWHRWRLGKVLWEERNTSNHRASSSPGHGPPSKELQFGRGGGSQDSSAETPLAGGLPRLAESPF

B1: Example 209 (peptide)
chain: YXQGTFTSDFSXXLDKKAQXAFIEYLLEAGPSSGAPPPSGS
modifications: Aib, Orn, αMeL, D-Ala, acylated Lys, C-terminal amide; synthetic construct; SITE 2: note = 2-Aminoisobutyric Acid; SITE 12: note = L-ornithine; SITE 13: note = alpha-methyl-leucine; SITE 17: note = Lysine is chemically modified through conjugation of the epsilon-amino group of the Lysine side chain with (2-[2-(2-Amino-ethoxy)-ethoxy]-acetyl)-(gamma-Glu)
In the case of B1, the Relative cAMP EC50 in test [1] stood at 1.78 nM; in test [2], 0.129 nM; in test [4], 3.08 nM. This molecule also registered a GLP1R Internalization EC50 in test [3] of 83.1 nM. In test [3], this molecule yielded an Internalization % TOP of 41.2%.

B2: Example 227 (peptide)
chain: YXQGTFTSDXSQXLDKKAQXAFIEYLIEXGESSGAPPPSGE
modifications: Aib, 4Pal, αMeL, αMe4Pal; K acylated AEEA-γGlu-C18 diacid; amide; synthetic construct; SITE 2: note = 2-Aminoisobutyric Acid; SITE 10: note = 3-(4-Pyridyl)-L-alanine; SITE 13: note = alpha-methyl-leucine; SITE 17: note = Lysine is chemically modified through conjugation of the epsilon-amino group of the Lysine side chain with (2-[2-(2-Amino-ethoxy)-ethoxy]-acetyl)
On to B2, for which, in test [1], the Relative cAMP EC50 was found to be 2.34 nM and the cAMP Rel EC50, nM (1% HSA) is 418 nM. In test [2], this molecule yielded a Relative cAMP EC50 of 0.17 nM and a cAMP Rel EC50, nM (1% HSA) of 39.7 nM. In test [3], the GLP1R Internalization EC50 came to 114 nM and the Internalization % TOP stood at 59.4%. In addition, in test [4], the Relative cAMP EC50 worked out at 4.22 nM and the cAMP Rel EC50, nM (1% HSA) is 937 nM.

B3: Example 224 (peptide)
chain: YXQGTFTSDXSRXLDKKAQXAFIEYLIEXGESSGAPPPSGS
modifications: non-natural residues, C-terminal amide, acylated Lys with fatty diacid; synthetic construct; SITE 2: note = 2-Aminoisobutyric Acid; SITE 10: note = 3-(4-Pyridyl)-L-alanine; SITE 13: note = alpha-methyl-leucine; SITE 17: note = Lysine is chemically modified through conjugation of the epsilon-amino group of the Lysine side chain with (2-[2-(2-Amino-ethoxy)-ethoxy]-acetyl)
In test [1], B3 came in with a Relative cAMP EC50 of 1.89 nM and a cAMP Rel EC50, nM (1% HSA) of 333 nM. In test [2], this molecule yielded a Relative cAMP EC50 of 0.114 nM and a cAMP Rel EC50, nM (1% HSA) of 21.5 nM. Moreover, in test [3], the GLP1R Internalization EC50 turned out to be 32.2 nM and the Internalization % TOP was found to be 61.9%. In test [4], this molecule came in with a Relative cAMP EC50 of 1.91 nM and a cAMP Rel EC50, nM (1% HSA) of 452 nM.

B4: Example 223 (peptide)
chain: YXQGTFTSDXSXXLDKKAQXAFIEYLIEXGESSGAPPPSGS
modifications: Aib, 4Pal, Orn, αMeL, αMe4Pal, acylated Lys, amide; synthetic construct; SITE 2: note = 2-Aminoisobutyric Acid; SITE 10: note = 3-(4-Pyridyl)-L-alanine; SITE 12: note = L-ornithine; SITE 13: note = alpha-methyl-leucine; SITE 17: note = Lysine is chemically modified through conjugation of the epsilon-amino group of the Lysine side chain with (2-[2-(2-
In test [1], B4 gave a Relative cAMP EC50 of 2.83 nM and a cAMP Rel EC50, nM (1% HSA) of 627 nM. In addition, in test [2], the Relative cAMP EC50 was found to be 0.215 nM and the cAMP Rel EC50, nM (1% HSA) was 37.2 nM. In test [3], this molecule displayed a GLP1R Internalization EC50 of 45.8 nM and an Internalization % TOP of 59.3%. Moreover, in test [4], the Relative cAMP EC50 was determined as 1.57 nM and the cAMP Rel EC50, nM (1% HSA) came to 373 nM.

B5: Example 204 (peptide)
chain: YXQGTFTSDFSXXLDKKAQXAFIEYLLEAGPSSGAPPPSGT
modifications: non-natural residues, (γGlu)2-C18 diacid lysine acylation, C-terminal amide; synthetic construct; SITE 2: note = 2-Aminoisobutyric Acid; SITE 12: note = L-ornithine; SITE 13: note = alpha-methyl-leucine; SITE 17: note = Lysine is chemically modified through conjugation of the epsilon-amino group of the Lysine side chain with (gamma-Glu)2-CO-(CH2)16-CO2H; SITE 20: note = 2-Am
In test [1], B5 gave a Relative cAMP EC50 of 2.34 nM and a cAMP Rel EC50, nM (1% HSA) of 306 nM. Further, in test [2], the Relative cAMP EC50 came to 0.181 nM and the cAMP Rel EC50, nM (1% HSA) came to 16.7 nM. In test [3], this molecule had a GLP1R Internalization EC50 of 66.4 nM and an Internalization % TOP of 45.5%. In test [4], the Relative cAMP EC50 came to 6.92 nM and the cAMP Rel EC50, nM (1% HSA) came to 572 nM.

B6: Example 214 (peptide)
chain: YXQGTFTSDFSXXLDKKAQXAFIEYLLEAGPSSXAPPPSGT
modifications: Lys acylated with AEEA-γGlu-C18 diacid; non-natural residues; C-amide; synthetic construct; SITE 2: note = 2-Aminoisobutyric Acid; SITE 12: note = L-ornithine; SITE 13: note = alpha-methyl-leucine; SITE 17: note = Lysine is chemically modified through conjugation of the epsilon-amino group of the Lysine side chain with (2-[2-(2-Amino-ethoxy)-ethoxy]-acetyl)-(gamma-Glu)
In test [1], B6 displayed a Relative cAMP EC50 of 1.22 nM and a cAMP Rel EC50, nM (1% HSA) of 186 nM. In test [2], this molecule yielded a Relative cAMP EC50 of 0.103 nM and a cAMP Rel EC50, nM (1% HSA) of 15.1 nM. In test [3], this molecule registered a GLP1R Internalization EC50 of 50.1 nM and an Internalization % TOP of 41.7%. For the same molecule, in test [4], the Relative cAMP EC50 was 2.49 nM and the cAMP Rel EC50, nM (1% HSA) was 302 nM.

B7: Example 211 (peptide)
chain: YXQGTFTSDFSXXLDKKAQXAFIEYLLEAGPSSGAPPPSGX
modifications: non-natural residues, acylated Lys, C-terminal amide; synthetic construct; SITE 2: note = 2-Aminoisobutyric Acid; SITE 12: note = L-ornithine; SITE 13: note = alpha-methyl-leucine; SITE 17: note = Lysine is chemically modified through conjugation of the epsilon-amino group of the Lysine side chain with (2-[2-(2-Amino-ethoxy)-ethoxy]-acetyl)-(gamma-Glu)
B7: in test [1], the Relative cAMP EC50 was found to be 1.23 nM and the cAMP Rel EC50, nM (1% HSA) stood at 234 nM. In test [2], this molecule came in with a Relative cAMP EC50 of 0.116 nM and a cAMP Rel EC50, nM (1% HSA) of 20.6 nM. In test [3], this molecule yielded a GLP1R Internalization EC50 of 57.4 nM and an Internalization % TOP of 26.9%. Further, in test [4], the Relative cAMP EC50 turned out to be 2.05 nM and the cAMP Rel EC50, nM (1% HSA) worked out at 370 nM.

B8: Example 205 (peptide)
chain: YXQGTFTSDFSXXLDKKAQXAFIEYLLEAGPSSGAPPPSGT
modifications: Aib, Orn, αMeL, D-Ala; acylated lysine; amide; synthetic construct; SITE 2: note = 2-Aminoisobutyric Acid; SITE 12: note = L-ornithine; SITE 13: note = alpha-methyl-leucine; SITE 17: note = Lysine is chemically modified through conjugation of the epsilon-amino group of the Lysine side chain with (gamma-Glu)3-CO-(CH2)16-CO2H; SITE 20: note = 2-Am
For B8, the values for the Relative cAMP EC50 in test [1], in test [2] and in test [4] were 2.71 nM, 0.16 nM and 8.98 nM, respectively. Further, the cAMP Rel EC50, nM (1% HSA) in test [1] is 234 nM; in test [2], 24.4 nM; in test [4] it was 397 nM. In test [3], this molecule registered a GLP1R Internalization EC50 of 49.4 nM. Also, in test [3], the Internalization % TOP was 67.7%.

Turning to Y[Aib]QGTFTSD[4Pal]S[Dab][αMeL]LDKK([AEEA-γGlu-C18 diacid])AQ[Aib]AFIEYLIE[Aib]GESSGAPPPSGS-NH2 [Example 188], in test [1], the Relative cAMP EC50, nM (0.1% casein) amounted to 3.43 nM and the cAMP Rel EC50, nM (1% HSA) is 436 nM. In test [2], the Relative cAMP EC50, nM (0.1% casein) amounted to 0.193 nM and the cAMP Rel EC50, nM (1% HSA) turned out to be 43.8 nM. Also, in test [3], the GLP1R Internalization EC50 was found to be 44.7 nM and the Internalization % TOP stood at 40.2%. In test [4], this molecule registered a Relative cAMP EC50, nM (0.1% casein) of 10.8 nM and a cAMP Rel EC50, nM (1% HSA) of 2920 nM.
